Source: paper doi:10.1101/2023.12.07.570680

Assays:
EMB1006-MBP [1] = biological target: T1, EMB1006-MBP (Arabidopsis thaliana, UniProt Q9FGR7 44-723); assay: EMSA
T1 sequence: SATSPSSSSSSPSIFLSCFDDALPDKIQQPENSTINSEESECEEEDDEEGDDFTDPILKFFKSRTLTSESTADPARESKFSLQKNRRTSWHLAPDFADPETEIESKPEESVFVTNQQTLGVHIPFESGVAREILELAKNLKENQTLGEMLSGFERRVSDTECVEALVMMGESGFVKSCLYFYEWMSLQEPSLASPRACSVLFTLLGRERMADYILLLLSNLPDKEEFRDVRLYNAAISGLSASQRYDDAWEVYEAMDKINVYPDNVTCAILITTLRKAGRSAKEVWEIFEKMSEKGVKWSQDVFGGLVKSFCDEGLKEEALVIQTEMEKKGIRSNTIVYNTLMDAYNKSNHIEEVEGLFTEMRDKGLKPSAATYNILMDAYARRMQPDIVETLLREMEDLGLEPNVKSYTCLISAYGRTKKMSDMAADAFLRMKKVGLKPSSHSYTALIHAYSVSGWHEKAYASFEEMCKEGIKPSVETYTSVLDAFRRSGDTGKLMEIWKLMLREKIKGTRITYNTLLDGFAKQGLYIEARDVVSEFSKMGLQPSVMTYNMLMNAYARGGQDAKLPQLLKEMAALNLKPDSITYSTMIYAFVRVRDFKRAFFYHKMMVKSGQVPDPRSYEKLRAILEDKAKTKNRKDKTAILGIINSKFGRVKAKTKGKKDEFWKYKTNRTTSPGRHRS

EMB1006-MBP [2] = biological target: T1, EMB1006-MBP; assay: competition
EMB976-MBP = biological target: T2, EMB976-MBP (Arabidopsis thaliana, UniProt O04647 1-1038); assay: EMSA
T2 sequence: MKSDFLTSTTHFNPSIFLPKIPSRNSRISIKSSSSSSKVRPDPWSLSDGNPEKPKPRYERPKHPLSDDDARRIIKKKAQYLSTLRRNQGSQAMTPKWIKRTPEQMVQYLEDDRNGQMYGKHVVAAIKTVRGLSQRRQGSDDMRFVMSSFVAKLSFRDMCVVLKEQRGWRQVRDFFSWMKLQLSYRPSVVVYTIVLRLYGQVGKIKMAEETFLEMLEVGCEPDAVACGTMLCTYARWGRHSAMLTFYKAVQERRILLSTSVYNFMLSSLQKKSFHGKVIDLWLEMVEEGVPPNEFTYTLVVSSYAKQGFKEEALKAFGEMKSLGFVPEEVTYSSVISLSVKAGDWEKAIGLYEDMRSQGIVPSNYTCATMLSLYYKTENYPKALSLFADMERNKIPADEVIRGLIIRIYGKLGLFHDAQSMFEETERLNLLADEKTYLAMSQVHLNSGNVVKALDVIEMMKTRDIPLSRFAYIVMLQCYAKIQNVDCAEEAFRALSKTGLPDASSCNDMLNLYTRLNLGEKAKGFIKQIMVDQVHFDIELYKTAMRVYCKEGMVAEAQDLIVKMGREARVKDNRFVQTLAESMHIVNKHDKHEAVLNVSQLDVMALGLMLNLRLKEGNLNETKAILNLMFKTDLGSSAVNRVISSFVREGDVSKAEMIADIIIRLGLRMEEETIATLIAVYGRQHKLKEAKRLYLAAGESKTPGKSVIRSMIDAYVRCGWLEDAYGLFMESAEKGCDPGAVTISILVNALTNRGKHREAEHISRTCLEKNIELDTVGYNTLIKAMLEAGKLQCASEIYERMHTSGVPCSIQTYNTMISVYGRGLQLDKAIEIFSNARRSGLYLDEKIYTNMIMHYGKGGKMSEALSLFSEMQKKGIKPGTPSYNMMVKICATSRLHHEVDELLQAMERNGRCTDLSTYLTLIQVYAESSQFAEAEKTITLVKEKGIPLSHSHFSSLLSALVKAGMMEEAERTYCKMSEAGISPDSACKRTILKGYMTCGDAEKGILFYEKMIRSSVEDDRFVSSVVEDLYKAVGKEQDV

| Binder | binding result (EMB1006-MBP [2]) | other results |
| --- | --- | --- |
| AAUUACCAAACGUAUAGCAUUCC (ssRNA) [Cy5-clpP1-exon2] |  | binding result (EMB1006-MBP [1]): binds |
| AAUUACCAAACGUAUAGCAUUCC (ssRNA) [clpP1-exon2-Cold] | binds |  |
| UUUUUUAGAUUAAAAAAAAAUUCG (ssRNA) [clpP1-intron2-Cold] | no binding |  |
| GAAGAGGUUUUUCAAAUGAUA (ssRNA) [Cy5-clpP1-intron2-976] |  | binding result (EMB976-MBP): no binding |
